B1: α-subunit of the F1 part of the Na+-F1FO-ATP synthase of Acetobacterium woodii, N-terminal StrepI tag (natural protein, UniProt P50000 1-502, looked up)
chain: MNLRPEEISQIIKNEIERYEDKLEVVDVGTVIQVGDGVARVHGLENAMAGELLAFPNEVYGMVLNLEEDNVGCVLLGYDDDIVEGDIVRCTGRIVEVPVGEAMIGRVVNALGFPVDGKGPIVTDHRRPVEVKAAGVIERESVNQPIQTGYKAIDSMIPIGRGQRELIIGDRQTGKTALAIDTIINQKGEDVICIYVAIGQKDSTVAQIVGQLEENNAMDYTIIVSAGAAQLAPLQYIAPYSGVTMAEYFMNEQQKDVLIIYDDLSKHAVAYRAMSLILRRPPGREAYPGDVFYLHSRLLERAAKLKAGGSITALPIIETQAGDVSAYIPTNVISITDGQIFLEAELFRSGIRPAVNPGISVSRVGGSAQIKSMKKVAGPLRIEYAQYRELASFAQFGSDLDDETKAQLAKGERIVEILKQDQYDPMNVEDQVLILYAATNGFLLDIEVKDIREFEKGLIKFAQKKYPEIMTKVKGKDGLSDEVVAAFAECIEAYKKVFSKSV
notes: ATP synthase subunit alpha (gene atpA) of the Na+-F1FO-ATP synthase, Acetobacterium woodii; also called α[WT]; StrepI-α; source: E. coli BL21gold(DE3), purified (Strep-Tactin, SEC); not shown: StrepI, N-terminal, kept
B3: central stalk γε complex of the A. woodii F1 ATP synthase (atpG and atpC expressed bicistronically, His6 tag on ε) (complex, Acetobacterium woodii)
chain 1: MAENVQDIKRRIKSVNSTMQITHAMELVASAKLRKSRELAEGRRPYFEAMIESIGRIVEKSGNARNIFMDQREVKKTAYIIITGDKGLAGGYNVNVAKLVEEHITDKENAVLFTVGSRGRDHFRNREYHIQGEYLGISERPNFFNAKEVTAIVMEGFKNGEYDEVYIAYTKFVSTITQHAQMMKLLPLSAEELITSGKVKTTEETKEEKSKMSDRELTIMTYEPEPEELLKYLIPNFVSSTVYGSMIESAASEQGARRTAMESATTNANEMIDGLTLQYNRVRQAAITQEISEIVGGAEALN
chain 2: MAETFRLKIIAPTGVFFDDDIERVVIRGIEGELAILAEHTPLTTNVAIGTFNIIFADKKKKNGTLLGGIATINPRETIILTDAAEWPEEIDIKRAQEAKERALKRIHDDKFDTARARAALERAIARINSKENV
notes: ATP synthase subunit gamma (gene atpG) of the Na+-F1FO-ATP synthase, Acetobacterium woodii; ATP synthase subunit epsilon (gene atpC) of the Na+-F1FO-ATP synthase, Acetobacterium woodii; source: E. coli BL21gold(DE3), co-expressed, purified (Ni-NTA, SEC); copies: 1 + 1
B4: in vitro assembled αβ heterodimer (StrepI-α with His6-β, in ATP/Mg2+ or other nucleotide/Mg2+) (complex, Acetobacterium woodii)
chain 1: MNLRPEEISQIIKNEIERYEDKLEVVDVGTVIQVGDGVARVHGLENAMAGELLAFPNEVYGMVLNLEEDNVGCVLLGYDDDIVEGDIVRCTGRIVEVPVGEAMIGRVVNALGFPVDGKGPIVTDHRRPVEVKAAGVIERESVNQPIQTGYKAIDSMIPIGRGQRELIIGDRQTGKTALAIDTIINQKGEDVICIYVAIGQKDSTVAQIVGQLEENNAMDYTIIVSAGAAQLAPLQYIAPYSGVTMAEYFMNEQQKDVLIIYDDLSKHAVAYRAMSLILRRPPGREAYPGDVFYLHSRLLERAAKLKAGGSITALPIIETQAGDVSAYIPTNVISITDGQIFLEAELFRSGIRPAVNPGISVSRVGGSAQIKSMKKVAGPLRIEYAQYRELASFAQFGSDLDDETKAQLAKGERIVEILKQDQYDPMNVEDQVLILYAATNGFLLDIEVKDIREFEKGLIKFAQKKYPEIMTKVKGKDGLSDEVVAAFAECIEAYKKVFSKSV
chain 2: MAQNIGKVVQVIGPVVDVKFQKDKLPKLNNAVNIELNGHTLVIEVAQQLGDDIVRCIAMDSTDGLMRNQEAVDTGSAIQVPVGKATLGRMFNVLGEPIDGKPFDTKDVVMHPIHRHPPSFEEQQTQPEMFETGIKVVDLICPYVRGGKIGLFGGAGVGKTVLIQELINNIATQHGGLSVFAGVGERTREGNDLYYEMMESGVINKTALCFGQMNEPPGARMRIALAGLTMAEYFRDDEGQDVLLFIDNIFRFTQAGSEVSALLGRMPSAVGYQPTLATEMGALQERITSTSKGSITSVQAVYVPADDLTDPAPATTFAHLDATTVLSRAITEKGIYPAVDPLDSTSRILDPKIVGQEHYETAREVQEILQRYKELQDIIAILGMDELSDADKITVSRARKVERFLSQPFNVAEQFTGTAGVYVTIGDTIKGFKEILEGQHDDLPESAFLLVGTIEDAVVKAKKIKG
notes: ATP synthase subunit alpha (gene atpA), Acetobacterium woodii; as m1; ATP synthase subunit beta (gene atpD), Acetobacterium woodii; as m2; also called in vitro αβ; source: assembled in vitro from subunits purified from E. coli BL21gold(DE3); not shown: StrepI, N-terminal, kept; His6, N-terminal, kept; copies: 1 + 1

How the values were obtained:
Details in all cases: both partners purified
[1] = molecular target: B3; assay: native MS; LILBID-MS; purified subunits incubated in 50 mM KPi, 200 mM NaCl, 2 mM ATP, 2 mM MgCl2, 10% glycerol, pH 7.4, 4 °C, 1 h; exchanged into 100 mM ammonium acetate, 2 mM ATP, 2 mM MgCl2, pH 7.4
[2] = molecular target: T1, α-subunit mutant α[R363K], A. woodii (Acetobacterium woodii, UniProt P50000 1-502, R363K); assay: SEC; HPLC on a bioZen 1.8 µm SEC-3 column, 60 µg protein, elution buffer B (50 mM KPi, 200 mM NaCl, 2 mM ATP, 2 mM MgCl2, pH 7.4), 4 °C
T1 construct: ATP synthase subunit alpha (gene atpA), Acetobacterium woodii, point mutant; source: E. coli BL21gold(DE3), purified (Strep-Tactin, SEC)

[3] = molecular target: T2, α-subunit mutant α[R363Q], A. woodii (Acetobacterium woodii, UniProt P50000 1-502, R363Q); assay: as above
T2 construct: ATP synthase subunit alpha (gene atpA), Acetobacterium woodii, point mutant; source: E. coli BL21gold(DE3), purified (Strep-Tactin, SEC)

[4] = molecular target: B1; assay: native MS; LILBID-MS; purified subunits incubated in 50 mM KPi, 200 mM NaCl, 2 mM ATP, 2 mM MgCl2, 10% glycerol, pH 7.4, 4 °C, 1 h; exchanged into 100 mM ammonium acetate, 2 mM ATP, 2 mM MgCl2, pH 7.4
[5] = molecular target: B4; assay: as above
[6] = molecular target: T3, α[R363Q]β[WT] heterodimer assembled in vitro in ATP/Mg2+ (Acetobacterium woodii, UniProt P50000 1-502; P50002 1-466, R363Q); assay: as above
T3 construct: ATP synthase subunit alpha (gene atpA), Acetobacterium woodii; as m9; ATP synthase subunit beta (gene atpD), Acetobacterium woodii; as m2; source: assembled in vitro from subunits purified from E. coli BL21gold(DE3); not shown: His6, N-terminal, kept; copies: 1 + 1

**Q.** Which “stoichiometry N” value [1] does the source give for B1 here?
**A.** Its value is at most 1.

B2: β-subunit of the F1 part of the Na+-F1FO-ATP synthase of Acetobacterium woodii, N-terminal His6 tag (natural protein, UniProt P50002 1-466, looked up)
chain: MAQNIGKVVQVIGPVVDVKFQKDKLPKLNNAVNIELNGHTLVIEVAQQLGDDIVRCIAMDSTDGLMRNQEAVDTGSAIQVPVGKATLGRMFNVLGEPIDGKPFDTKDVVMHPIHRHPPSFEEQQTQPEMFETGIKVVDLICPYVRGGKIGLFGGAGVGKTVLIQELINNIATQHGGLSVFAGVGERTREGNDLYYEMMESGVINKTALCFGQMNEPPGARMRIALAGLTMAEYFRDDEGQDVLLFIDNIFRFTQAGSEVSALLGRMPSAVGYQPTLATEMGALQERITSTSKGSITSVQAVYVPADDLTDPAPATTFAHLDATTVLSRAITEKGIYPAVDPLDSTSRILDPKIVGQEHYETAREVQEILQRYKELQDIIAILGMDELSDADKITVSRARKVERFLSQPFNVAEQFTGTAGVYVTIGDTIKGFKEILEGQHDDLPESAFLLVGTIEDAVVKAKKIKG
notes: ATP synthase subunit beta (gene atpD) of the Na+-F1FO-ATP synthase, Acetobacterium woodii; also called β[WT]; His6-β; source: E. coli BL21gold(DE3), purified (Ni-NTA, SEC); also co-expressed with other F1 subunits in E. coli as the tagged subunit of the in cellula complexes; not shown: His6, N-terminal, kept
**Q.** Which results are given for B2?
**A.** binding result [2]: binds; binding result [3]: binds; binding result [4]: binds; stoichiometry N [1]: ≤ 1

**Q.** What does the source list for B3?
**A.** binding result [5]: binds; binding result [6]: binds

**Q.** How did the “stoichiometry N” value [1] turn out when B4 was run?
**A.** Its value is 3.
